Measured values from publication PMC7440162 (Cell, 2020).

Assays:
Experiment in all cases: SPR
[1] = target: T1, human ISLR2 ECD-Fc (human, UniProt Q6UXK2 19-589, biotin on the AviTag (as SPR ligand))
T1 sequence: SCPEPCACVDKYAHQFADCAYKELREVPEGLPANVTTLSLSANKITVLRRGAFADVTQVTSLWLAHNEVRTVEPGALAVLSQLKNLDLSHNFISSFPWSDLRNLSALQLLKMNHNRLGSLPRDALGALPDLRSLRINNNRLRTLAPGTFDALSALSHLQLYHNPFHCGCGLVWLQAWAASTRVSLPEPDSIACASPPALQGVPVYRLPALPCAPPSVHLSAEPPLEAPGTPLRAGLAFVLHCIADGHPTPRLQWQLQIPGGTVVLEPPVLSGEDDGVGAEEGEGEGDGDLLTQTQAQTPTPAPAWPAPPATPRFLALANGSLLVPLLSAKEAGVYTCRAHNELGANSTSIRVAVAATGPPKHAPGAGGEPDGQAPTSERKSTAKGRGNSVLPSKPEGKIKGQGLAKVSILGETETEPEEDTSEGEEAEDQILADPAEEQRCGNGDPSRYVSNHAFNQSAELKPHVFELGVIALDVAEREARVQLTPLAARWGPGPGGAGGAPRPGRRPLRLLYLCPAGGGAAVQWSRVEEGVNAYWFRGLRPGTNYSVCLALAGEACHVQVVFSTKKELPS

[2] = target: T2, mouse Islr2 ECD-Fc (mouse, UniProt Q5RKR3 20-589, biotin on the AviTag (as SPR ligand))
T2 sequence: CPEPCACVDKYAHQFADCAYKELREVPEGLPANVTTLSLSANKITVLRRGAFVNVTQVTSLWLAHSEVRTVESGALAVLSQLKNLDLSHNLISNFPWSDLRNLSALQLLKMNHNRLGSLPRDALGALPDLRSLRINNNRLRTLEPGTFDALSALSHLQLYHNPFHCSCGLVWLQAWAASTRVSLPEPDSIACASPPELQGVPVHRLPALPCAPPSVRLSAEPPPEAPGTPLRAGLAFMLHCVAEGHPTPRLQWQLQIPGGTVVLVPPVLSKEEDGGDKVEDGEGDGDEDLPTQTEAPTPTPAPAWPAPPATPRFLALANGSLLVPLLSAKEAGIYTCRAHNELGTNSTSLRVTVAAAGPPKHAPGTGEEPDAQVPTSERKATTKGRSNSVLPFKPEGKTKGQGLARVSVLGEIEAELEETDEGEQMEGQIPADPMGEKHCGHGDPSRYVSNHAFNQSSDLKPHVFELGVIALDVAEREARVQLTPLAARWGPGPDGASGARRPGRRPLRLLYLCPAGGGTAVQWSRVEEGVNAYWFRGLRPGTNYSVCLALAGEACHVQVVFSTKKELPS

[3] = target: T3, mouse Lepr ECD-Fc (mouse, UniProt P48356 22-839, biotin on the AviTag (as SPR ligand))
T3 sequence: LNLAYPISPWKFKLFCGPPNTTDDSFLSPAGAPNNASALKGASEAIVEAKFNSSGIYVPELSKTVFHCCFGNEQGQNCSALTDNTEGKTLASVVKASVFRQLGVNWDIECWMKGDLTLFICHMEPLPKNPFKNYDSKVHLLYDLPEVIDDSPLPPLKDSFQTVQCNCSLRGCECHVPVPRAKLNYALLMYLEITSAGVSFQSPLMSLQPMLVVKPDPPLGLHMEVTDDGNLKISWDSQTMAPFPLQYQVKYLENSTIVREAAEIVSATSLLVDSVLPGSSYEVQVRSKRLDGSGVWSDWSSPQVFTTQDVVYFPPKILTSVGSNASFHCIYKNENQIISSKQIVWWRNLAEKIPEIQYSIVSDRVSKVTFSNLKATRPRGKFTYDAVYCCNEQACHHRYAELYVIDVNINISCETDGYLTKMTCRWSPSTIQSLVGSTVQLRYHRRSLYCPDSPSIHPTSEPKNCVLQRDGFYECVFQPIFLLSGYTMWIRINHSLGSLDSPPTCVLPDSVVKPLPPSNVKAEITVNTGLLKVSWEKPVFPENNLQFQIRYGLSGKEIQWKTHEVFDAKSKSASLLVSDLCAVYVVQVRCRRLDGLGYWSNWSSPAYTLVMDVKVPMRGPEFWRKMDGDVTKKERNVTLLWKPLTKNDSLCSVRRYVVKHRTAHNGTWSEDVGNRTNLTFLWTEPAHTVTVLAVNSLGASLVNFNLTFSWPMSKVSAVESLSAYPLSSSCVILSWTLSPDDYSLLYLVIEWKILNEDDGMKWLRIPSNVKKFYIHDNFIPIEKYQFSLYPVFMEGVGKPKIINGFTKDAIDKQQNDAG

[4] = target: T4, WFIKKN2-Fc (human, UniProt Q8TEU8 35-576, biotin on the AviTag (as SPR ligand))
T4 sequence: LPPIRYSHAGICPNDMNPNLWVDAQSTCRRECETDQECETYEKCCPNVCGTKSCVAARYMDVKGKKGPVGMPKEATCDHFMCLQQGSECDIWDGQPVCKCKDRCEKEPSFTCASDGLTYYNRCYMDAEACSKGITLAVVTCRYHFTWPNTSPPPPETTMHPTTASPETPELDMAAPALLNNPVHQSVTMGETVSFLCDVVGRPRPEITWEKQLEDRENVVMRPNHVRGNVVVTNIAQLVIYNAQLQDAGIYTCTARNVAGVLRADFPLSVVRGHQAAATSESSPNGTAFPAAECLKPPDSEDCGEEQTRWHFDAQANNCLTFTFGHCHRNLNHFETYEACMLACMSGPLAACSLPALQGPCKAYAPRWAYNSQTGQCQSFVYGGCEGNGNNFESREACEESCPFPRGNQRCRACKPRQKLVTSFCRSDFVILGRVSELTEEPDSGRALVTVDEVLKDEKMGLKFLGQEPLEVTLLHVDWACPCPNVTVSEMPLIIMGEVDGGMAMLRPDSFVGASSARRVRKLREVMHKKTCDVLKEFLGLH

[5] = target: T5, ICAM5 ECD-Fc (human, UniProt Q9UMF0 32-835, biotin on the AviTag (as SPR ligand))
T5 sequence: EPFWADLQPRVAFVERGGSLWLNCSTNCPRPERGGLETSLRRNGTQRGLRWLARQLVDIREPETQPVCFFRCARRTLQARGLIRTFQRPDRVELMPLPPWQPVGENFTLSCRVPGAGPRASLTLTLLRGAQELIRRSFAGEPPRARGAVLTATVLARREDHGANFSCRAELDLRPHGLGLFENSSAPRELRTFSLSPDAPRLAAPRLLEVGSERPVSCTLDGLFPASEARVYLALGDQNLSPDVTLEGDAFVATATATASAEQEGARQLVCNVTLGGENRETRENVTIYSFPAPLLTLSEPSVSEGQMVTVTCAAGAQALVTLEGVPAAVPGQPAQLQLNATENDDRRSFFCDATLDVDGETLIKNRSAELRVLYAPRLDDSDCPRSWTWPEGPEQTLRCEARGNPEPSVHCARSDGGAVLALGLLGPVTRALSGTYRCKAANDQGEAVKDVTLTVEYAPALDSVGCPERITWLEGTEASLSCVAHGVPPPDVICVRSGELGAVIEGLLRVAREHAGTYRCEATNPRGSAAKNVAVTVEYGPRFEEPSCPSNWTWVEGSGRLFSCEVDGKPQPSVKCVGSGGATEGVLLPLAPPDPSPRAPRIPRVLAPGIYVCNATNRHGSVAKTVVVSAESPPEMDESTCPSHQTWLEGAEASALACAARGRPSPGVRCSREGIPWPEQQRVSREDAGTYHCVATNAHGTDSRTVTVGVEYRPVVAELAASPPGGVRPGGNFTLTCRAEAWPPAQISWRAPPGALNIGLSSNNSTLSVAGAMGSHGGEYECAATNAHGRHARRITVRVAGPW

[6] = target: LTF-Fc (human, UniProt P02788, biotin on the AviTag (as SPR ligand))

Measured: binding result

LTF-Fc, sequence (P02788 20-710): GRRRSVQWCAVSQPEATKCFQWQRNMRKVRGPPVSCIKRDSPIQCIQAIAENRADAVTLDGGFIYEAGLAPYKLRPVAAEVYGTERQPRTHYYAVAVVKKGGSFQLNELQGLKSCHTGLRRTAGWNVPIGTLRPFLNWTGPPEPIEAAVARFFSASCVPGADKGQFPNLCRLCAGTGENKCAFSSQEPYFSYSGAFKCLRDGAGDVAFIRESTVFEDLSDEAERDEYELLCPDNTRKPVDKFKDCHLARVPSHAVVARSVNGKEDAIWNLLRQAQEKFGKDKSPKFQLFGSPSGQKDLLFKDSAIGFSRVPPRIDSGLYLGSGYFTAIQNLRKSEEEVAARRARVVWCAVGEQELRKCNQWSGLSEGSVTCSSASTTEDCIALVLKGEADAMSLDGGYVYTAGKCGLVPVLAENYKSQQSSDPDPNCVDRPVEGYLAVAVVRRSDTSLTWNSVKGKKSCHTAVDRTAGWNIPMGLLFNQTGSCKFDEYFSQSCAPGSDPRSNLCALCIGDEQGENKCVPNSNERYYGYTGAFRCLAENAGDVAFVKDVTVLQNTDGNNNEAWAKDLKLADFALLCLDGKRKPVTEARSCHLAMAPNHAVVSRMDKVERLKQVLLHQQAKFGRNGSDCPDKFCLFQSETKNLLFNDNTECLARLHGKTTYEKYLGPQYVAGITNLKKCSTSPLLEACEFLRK

B1: Recombinant Mouse Leptin Protein (monomer) (ligand)
chain: VPIQKVQDDTKTLIKTIVTRINDISHTQSVSAKQRVTGLDFIPGLHPILSLSKMDQTLAVYQQVLTSLPSQNVLQIANDLENLRDLLHLLAFSKSCSLPQTSGLQKPESLDGVLEASLYSTEVVALSRLQGSLQDILQQLDVSPEC
binds: [1] | [2] | [3]

B2: IL-6Rα ECD-Fc (Fc fusion)
chain: LAPRRCPAQEVARGVLTSLPGDSVTLTCPGVEPEDNATVHWVLRKPAAGSHPSRWAGMGRRLLLRSVQLHDSGNYSCYRAGRPAGTVHLLVDVPPEEPQLSCFRKSPLSNVVCEWGPRSTPSLTTKAVLLVRKFQNSPAEDFQEPCQYSQESQKFSCQLAVPEGDSSFYIVSMCVASSVGSKFSKTQTFQGCGILQPDPPANITVTAVARNPRWLSVTWQDPHSWNSSFYRLRFELRYRAERSKTFTTWMVKDLQHHCVIHDAWSGLRHVVQLRAQEEFGQGEWSEWSPEAMGTPWTESRSPPAENEVSTPMQALTTNKDDDNILFRDSANATSLPVQDSSSVPLP
modifications: biotin on the AviTag (as SPR ligand)
binds: [1] | [4] | [5] | [6]
